The results in this text go back to patent publication US20180355338A1.

Test [1] deals with TY-145 protease variant K146W, S173P, S175P, F180Y (Bacillus sp. TY-145). Briefly: Ki fitted from Suc-AAPF-pNA activity; Tris buffer pH 8; ratio against m3 (without K146W).
Test [2] has as its target TY-145 protease variant S27K, S171N, S173P, G174R, S175P, F180Y, Q198E, N199K, R224G, T297P (Bacillus sp. TY-145). As to the kind of experiment: Ki fitted from Suc-AAPF-pNA activity; Model B detergent; ratio against m11 (without R224G).
Test [3] deals with TY-145 protease variant I150N (Bacillus sp. TY-145). Briefly: Ki fitted from Suc-AAPF-pNA activity; Model B detergent; relative to TY145 backbone.
Test [4] has as its target TY-145 protease variant L184F (Bacillus sp. TY-145). The test is described as above.
Test [5] deals with TY-145 protease variant I150S (Bacillus sp. TY-145). The test is described as above.
The target in test [6] is TY-145 protease variant Q70F (Bacillus sp. TY-145). The description is as above.
Test [7] has as its target TY-145 protease variant G182A (Bacillus sp. TY-145). The description is as above.
Test [8] deals with TY-145 protease variant Y240R (Bacillus sp. TY-145). The description is as above.
In test [9] the target is TY-145 protease variant Q70N (Bacillus sp. TY-145). Described as above.

Turning to “Z-Gly-Ala-NHCH(CH2C6H4pOH)C(OH)(SO3Na)-H, wherein Z is benzyloxycarbonyl (peptide)”, the results for the relative Ki mutation in test [1] and in test [2] were 0.16 and 0.74, respectively. In addition, the IF (binding constant improvement factor, relative Ki) in [3] came to 0.27; in [4] it was 0.44; in test [5] it was 0.2; in [6], 0.12; in test [7], 0.54; in [8], 0.84. Further, the IF (binding constant improvement factor, relative Ki) in test [9] amounted to 0.3.
